Test results reported in patent US10562947B2, “Compositions and methods for preventing or treating diseases, conditions or processes characterized by aberrant fibroblast proliferation and extracellular matrix deposition” (MOERAE MATRIX, INC., priority 2011, dated 2020).
Where a SMILES comes first, the peptide text is derived from it.

Columns and labels:
Assay in all cases: Kinase Profiling Assay
Format in all cases: biochemical
CDK1/cyclinB(h) = CDK1/cyclinB(h) (Homo sapiens, UniProt P06493); settings: 100 μM peptide
Chain of CDK1/cyclinB(h) (P06493 whole entry): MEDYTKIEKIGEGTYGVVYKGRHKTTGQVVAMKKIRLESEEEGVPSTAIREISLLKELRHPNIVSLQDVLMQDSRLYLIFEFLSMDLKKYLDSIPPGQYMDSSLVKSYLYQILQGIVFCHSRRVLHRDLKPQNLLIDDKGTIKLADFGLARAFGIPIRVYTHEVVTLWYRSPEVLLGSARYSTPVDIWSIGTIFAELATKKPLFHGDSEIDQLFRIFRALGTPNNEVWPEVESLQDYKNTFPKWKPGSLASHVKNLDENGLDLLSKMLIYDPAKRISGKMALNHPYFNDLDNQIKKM
Chain of CDK1/cyclinB(h) (P14635 whole entry partner): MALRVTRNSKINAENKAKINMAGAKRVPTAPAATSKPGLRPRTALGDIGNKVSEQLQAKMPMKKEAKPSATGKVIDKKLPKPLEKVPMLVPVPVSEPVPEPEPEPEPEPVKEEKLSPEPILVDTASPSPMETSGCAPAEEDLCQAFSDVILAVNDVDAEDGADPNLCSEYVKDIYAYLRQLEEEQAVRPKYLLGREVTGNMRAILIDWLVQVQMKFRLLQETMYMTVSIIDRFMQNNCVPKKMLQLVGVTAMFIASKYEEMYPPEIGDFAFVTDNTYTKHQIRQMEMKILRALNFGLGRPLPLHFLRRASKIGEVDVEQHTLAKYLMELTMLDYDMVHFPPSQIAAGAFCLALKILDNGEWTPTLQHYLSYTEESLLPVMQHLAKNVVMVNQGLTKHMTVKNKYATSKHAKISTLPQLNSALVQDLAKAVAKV
Summary of the method: (§1)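 In duplicate, the activities of 266 available human kinases were determined with MK2 inhibitory peptides present, as a measure of peptide selectivity.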

CaMKI(h) = CaMKI(h) (Homo sapiens, UniProt Q14012); settings: for CaMKI(h) % activity: 100 μM peptide
Chain of CaMKI(h) (Q14012 whole entry): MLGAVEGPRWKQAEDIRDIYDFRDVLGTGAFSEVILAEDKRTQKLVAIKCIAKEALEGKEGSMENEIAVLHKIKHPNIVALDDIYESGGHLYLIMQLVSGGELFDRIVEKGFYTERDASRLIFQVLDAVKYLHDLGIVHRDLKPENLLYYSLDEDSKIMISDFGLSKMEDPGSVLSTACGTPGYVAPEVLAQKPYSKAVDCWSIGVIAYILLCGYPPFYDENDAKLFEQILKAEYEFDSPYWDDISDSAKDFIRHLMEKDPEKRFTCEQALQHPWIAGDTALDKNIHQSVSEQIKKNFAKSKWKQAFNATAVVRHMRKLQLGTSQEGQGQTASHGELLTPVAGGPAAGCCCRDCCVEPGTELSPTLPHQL
Summary of the method: as §1

CaMKIIβ(h) = CaMKIIβ(h) (Homo sapiens, UniProt Q13554); settings: 100 μM peptide
Chain of CaMKIIβ(h) (Q13554 whole entry): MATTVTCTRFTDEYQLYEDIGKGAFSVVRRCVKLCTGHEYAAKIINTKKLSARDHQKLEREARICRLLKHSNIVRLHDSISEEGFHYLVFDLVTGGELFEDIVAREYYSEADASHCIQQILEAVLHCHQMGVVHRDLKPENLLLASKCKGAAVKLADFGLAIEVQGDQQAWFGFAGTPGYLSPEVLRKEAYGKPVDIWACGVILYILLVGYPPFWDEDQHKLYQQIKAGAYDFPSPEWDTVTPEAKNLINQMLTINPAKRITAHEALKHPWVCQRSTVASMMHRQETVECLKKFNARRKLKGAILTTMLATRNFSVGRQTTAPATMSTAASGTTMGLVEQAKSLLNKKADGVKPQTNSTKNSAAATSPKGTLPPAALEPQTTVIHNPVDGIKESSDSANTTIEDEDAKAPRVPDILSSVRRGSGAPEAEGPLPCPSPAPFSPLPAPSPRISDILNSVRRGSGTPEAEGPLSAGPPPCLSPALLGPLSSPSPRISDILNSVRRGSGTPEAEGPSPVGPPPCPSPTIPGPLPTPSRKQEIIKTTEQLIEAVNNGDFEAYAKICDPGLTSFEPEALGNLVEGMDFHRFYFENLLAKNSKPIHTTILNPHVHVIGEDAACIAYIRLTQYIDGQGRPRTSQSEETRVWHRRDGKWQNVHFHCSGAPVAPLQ
Summary of the method: as §1

EGFR(L861Q)(h) = EGFR(L861Q)(h) (Homo sapiens, UniProt P00533, L861Q); settings: 100 μM peptide
Summary of the method: as §1

EphB2(h) = molecular target: T1, EphB2(h) (Homo sapiens, UniProt P29323); settings: 100 μM peptide
T1 sequence (P29323 19-1055): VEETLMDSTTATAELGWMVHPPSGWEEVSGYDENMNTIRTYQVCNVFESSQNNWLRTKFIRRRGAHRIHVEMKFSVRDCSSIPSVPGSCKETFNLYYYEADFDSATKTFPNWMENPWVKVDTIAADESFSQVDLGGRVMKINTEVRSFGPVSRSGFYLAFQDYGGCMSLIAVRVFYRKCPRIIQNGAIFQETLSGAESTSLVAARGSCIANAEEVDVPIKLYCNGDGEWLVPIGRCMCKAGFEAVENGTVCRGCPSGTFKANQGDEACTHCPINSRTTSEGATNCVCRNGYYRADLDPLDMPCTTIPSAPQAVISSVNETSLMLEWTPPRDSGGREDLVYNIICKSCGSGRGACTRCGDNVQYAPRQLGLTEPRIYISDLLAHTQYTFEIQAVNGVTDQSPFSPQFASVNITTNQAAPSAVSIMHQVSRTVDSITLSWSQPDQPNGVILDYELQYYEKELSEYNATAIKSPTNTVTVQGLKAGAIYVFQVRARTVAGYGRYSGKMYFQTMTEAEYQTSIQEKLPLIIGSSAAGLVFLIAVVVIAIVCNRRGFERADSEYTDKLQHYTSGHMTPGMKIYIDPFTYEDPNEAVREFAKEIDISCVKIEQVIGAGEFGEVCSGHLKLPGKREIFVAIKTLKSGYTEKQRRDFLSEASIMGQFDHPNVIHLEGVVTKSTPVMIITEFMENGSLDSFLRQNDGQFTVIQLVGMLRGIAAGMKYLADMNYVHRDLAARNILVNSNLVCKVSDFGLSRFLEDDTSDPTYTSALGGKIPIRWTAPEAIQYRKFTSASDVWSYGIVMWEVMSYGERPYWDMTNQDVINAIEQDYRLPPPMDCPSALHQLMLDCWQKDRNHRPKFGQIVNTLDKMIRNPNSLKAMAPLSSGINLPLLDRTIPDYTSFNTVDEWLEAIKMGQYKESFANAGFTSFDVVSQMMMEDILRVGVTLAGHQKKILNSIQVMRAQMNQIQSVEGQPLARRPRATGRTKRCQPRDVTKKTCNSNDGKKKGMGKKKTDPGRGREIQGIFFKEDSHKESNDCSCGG
Summary of the method: as §1

ErbB4(h) = ErbB4(h) (Homo sapiens, UniProt Q15303); settings: 100 μM peptide
Chain of ErbB4(h) (Q15303 26-1308): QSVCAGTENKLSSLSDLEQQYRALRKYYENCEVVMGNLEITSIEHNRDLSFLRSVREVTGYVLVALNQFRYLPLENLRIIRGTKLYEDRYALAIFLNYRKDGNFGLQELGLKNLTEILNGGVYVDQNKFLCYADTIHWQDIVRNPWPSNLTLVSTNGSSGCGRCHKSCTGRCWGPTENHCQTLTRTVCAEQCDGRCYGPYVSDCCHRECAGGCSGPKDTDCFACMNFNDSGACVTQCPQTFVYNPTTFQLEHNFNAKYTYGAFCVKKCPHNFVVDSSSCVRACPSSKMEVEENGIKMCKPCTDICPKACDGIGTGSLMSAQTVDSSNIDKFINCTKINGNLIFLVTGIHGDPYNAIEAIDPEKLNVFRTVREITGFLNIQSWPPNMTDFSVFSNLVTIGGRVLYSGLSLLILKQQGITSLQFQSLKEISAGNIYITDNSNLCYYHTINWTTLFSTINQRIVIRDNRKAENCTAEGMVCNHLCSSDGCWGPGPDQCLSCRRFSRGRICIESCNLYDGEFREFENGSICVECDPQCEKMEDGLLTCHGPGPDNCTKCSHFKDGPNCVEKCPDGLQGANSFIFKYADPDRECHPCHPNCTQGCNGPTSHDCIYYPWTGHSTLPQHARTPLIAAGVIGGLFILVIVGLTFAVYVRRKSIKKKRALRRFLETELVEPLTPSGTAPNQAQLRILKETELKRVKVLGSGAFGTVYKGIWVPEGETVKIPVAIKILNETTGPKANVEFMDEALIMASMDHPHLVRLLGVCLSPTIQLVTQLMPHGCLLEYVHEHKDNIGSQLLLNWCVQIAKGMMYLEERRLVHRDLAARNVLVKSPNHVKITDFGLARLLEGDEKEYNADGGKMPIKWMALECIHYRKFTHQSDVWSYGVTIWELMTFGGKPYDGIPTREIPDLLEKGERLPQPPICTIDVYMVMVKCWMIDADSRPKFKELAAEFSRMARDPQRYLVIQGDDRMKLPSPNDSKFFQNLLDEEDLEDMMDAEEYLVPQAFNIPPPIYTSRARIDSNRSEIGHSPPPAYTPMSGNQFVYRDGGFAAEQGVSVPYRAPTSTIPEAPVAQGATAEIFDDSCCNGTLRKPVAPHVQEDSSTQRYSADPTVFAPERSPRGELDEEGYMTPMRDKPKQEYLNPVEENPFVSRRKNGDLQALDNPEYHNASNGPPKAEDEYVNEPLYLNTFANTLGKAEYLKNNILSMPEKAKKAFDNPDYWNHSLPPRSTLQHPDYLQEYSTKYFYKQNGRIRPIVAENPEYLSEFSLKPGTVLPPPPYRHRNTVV
Summary of the method: as §1

Fes(h) = Fes(h) (Homo sapiens, UniProt P07332); settings: 100 μM peptide
Chain of Fes(h) (P07332 whole entry): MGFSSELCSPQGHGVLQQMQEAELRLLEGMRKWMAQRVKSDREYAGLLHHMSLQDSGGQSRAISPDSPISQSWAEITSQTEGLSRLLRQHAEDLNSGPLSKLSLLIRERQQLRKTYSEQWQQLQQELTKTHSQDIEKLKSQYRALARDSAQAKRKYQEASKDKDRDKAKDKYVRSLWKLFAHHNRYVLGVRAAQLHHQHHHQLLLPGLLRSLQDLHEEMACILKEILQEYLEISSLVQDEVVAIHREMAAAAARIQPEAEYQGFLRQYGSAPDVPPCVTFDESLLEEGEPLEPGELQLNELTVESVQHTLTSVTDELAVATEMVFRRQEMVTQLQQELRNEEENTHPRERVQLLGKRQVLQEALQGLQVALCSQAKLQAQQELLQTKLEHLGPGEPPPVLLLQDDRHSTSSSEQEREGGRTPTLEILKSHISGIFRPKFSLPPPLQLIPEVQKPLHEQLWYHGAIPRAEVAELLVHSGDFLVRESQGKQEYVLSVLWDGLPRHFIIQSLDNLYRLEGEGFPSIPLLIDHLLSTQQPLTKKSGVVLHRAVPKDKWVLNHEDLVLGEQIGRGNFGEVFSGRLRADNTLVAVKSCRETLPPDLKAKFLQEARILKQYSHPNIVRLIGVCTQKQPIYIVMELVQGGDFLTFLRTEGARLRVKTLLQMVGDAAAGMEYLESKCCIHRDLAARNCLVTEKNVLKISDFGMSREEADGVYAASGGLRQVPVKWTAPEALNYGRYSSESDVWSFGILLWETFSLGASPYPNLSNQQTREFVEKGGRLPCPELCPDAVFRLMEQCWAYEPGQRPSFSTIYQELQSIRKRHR
Summary of the method: as §1

IR(h) = molecular target: T2, IR(h) (Homo sapiens, UniProt P06213); settings: 100 μM peptide
T2 construct: purchased Millipore
Summary of the method: as §1

LOK(h) = LOK(h) (Homo sapiens, UniProt O94804); settings: 100 μM peptide
Chain of LOK(h) (O94804 whole entry): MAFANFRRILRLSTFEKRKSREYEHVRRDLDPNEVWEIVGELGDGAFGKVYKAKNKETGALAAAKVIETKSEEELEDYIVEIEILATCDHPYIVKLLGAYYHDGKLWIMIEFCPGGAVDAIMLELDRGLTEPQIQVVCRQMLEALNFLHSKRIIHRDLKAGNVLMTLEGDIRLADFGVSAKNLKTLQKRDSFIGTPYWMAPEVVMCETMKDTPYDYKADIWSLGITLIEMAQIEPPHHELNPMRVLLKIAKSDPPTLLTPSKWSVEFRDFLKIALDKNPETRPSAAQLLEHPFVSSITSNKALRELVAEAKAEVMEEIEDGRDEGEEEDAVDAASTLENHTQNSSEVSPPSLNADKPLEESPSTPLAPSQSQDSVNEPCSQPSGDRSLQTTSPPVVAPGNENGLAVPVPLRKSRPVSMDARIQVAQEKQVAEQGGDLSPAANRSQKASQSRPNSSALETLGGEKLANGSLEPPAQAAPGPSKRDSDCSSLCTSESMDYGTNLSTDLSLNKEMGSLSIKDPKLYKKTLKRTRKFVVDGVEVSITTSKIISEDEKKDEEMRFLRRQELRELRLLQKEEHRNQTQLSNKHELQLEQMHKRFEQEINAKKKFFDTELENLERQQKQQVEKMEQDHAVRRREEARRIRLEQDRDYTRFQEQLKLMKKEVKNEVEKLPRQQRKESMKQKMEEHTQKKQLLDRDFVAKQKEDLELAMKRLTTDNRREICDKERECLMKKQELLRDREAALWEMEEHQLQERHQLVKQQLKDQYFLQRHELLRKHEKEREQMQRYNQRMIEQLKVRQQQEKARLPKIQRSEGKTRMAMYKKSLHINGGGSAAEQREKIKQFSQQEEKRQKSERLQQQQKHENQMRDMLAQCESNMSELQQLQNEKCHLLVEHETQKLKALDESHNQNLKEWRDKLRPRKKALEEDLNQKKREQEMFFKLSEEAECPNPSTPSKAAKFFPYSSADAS
Summary of the method: as §1

Lyn(h) = Lyn(h) (Homo sapiens, UniProt P07948); settings: 100 μM peptide
Summary of the method: as §1

MARK1(h) = MARK1(h) (Homo sapiens, UniProt Q9P0L2); settings: 100 μM peptide
Summary of the method: as §1

MKK6(h) = molecular target: T3, MKK6(h) (Homo sapiens, UniProt P52564); settings: 100 μM peptide
T3 sequence (P52564 1-334): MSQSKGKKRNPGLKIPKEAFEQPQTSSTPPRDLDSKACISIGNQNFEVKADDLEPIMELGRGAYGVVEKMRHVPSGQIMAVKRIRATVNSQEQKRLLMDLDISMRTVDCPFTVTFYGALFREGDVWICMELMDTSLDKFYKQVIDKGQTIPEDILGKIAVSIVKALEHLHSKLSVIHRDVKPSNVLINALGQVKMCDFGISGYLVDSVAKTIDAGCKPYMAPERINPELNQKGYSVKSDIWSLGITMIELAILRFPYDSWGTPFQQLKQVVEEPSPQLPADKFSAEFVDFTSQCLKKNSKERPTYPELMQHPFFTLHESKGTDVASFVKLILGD
Summary of the method: as §1

PRK2(h) = molecular target: T4, PRK2(h) (Homo sapiens, UniProt Q16513); settings: 100 μM peptide
T4 construct: purchased Millipore (IC50 Profiler Express service)
Summary of the method: as §1

SRPK2(h) = SRPK2(h) (Homo sapiens, UniProt P78362); settings: 100 μM peptide
Summary of the method: as §1

ULK3(h) = molecular target: T5, ULK3(h) (Homo sapiens, UniProt Q6PHR2); settings: 100 μM peptide
T5 sequence (Q6PHR2 1-472): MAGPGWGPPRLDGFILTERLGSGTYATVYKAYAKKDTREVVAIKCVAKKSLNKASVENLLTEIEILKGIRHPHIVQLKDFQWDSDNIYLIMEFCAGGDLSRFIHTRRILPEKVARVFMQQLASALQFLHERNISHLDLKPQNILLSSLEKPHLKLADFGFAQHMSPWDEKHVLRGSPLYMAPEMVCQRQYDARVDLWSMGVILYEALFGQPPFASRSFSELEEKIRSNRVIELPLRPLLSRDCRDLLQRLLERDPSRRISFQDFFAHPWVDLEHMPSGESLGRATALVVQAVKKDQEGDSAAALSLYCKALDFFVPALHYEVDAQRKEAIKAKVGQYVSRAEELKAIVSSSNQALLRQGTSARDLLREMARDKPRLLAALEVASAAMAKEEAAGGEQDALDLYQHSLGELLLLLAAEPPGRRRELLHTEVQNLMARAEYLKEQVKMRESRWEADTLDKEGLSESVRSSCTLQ
Summary of the method: as §1

eEF-2K(h) = eEF-2K(h) (Homo sapiens, UniProt O00418); settings: 100 μM peptide
Summary of the method: as §1

Yes(h) = Yes(h) (Homo sapiens, UniProt P07947); settings: 100 μM peptide
Summary of the method: as §1

| Compound | CDK1/cyclinB(h) % activity (CDK1/cyclinB(h)) | CaMKI(h) % activity (CaMKI(h)) | CaMKIIβ(h) % activity (CaMKIIβ(h)) | EGFR(L861Q)(h) % activity (EGFR(L861Q)(h)) | EphB2(h) % activity (EphB2(h)) | ErbB4(h) % activity (ErbB4(h)) | Fes(h) % activity (Fes(h)) | IR(h) % activity (IR(h)) | LOK(h) % activity (LOK(h)) | Lyn(h) % activity (Lyn(h)) | MARK1(h) % activity (MARK1(h)) | MKK6(h) % activity (MKK6(h)) | PRK2(h) % activity (PRK2(h)) | SRPK2(h) % activity (SRPK2(h)) | ULK3(h) % activity (ULK3(h)) | eEF-2K(h) % activity (eEF-2K(h)) | inhibition at 100 µM (CaMKI(h); read-out: inhibition of kinase activity of CaMKI) | Yes(h) % activity (Yes(h)) |
| --- | --- | --- | --- | --- | --- | --- | --- | --- | --- | --- | --- | --- | --- | --- | --- | --- | --- | --- |
| HRRIKAWLKKIKALARQLGVAA (Mammalian) [MMI-0500] | 57% | −1% | 3% | 15% | 70% | 2% | 23% | 95% | 7% | 31% | 110% | 18% | 7% | 80% | 177% | 43% |  |  |
| CC(C)C[C@H](NC(=O)[C@H](C)NC(=O)[C@H](CCCCN)NC(=O)[C@H](C)NC(=O)[C@H](CCCNC(=N)N)NC(=O)[C@H](C)NC(=O)[C@H](CCC(N)=O)NC(=O)[C@H](CCCNC(=N)N)NC(=O)[C@H](C)NC(=O)[C@H](C)NC(=O)[C@H](C)NC(=O)[C@H](CCCNC(=N)N)NC(=O)[C@H](C)NC(=O)[C@@H](N)Cc1ccc(O)cc1)C(=O)N[C@@H](C)C(=O)N[C@@H](CCCNC(=N)N)C(=O)N[C@@H](CCC(N)=O)C(=O)N[C@@H](CC(C)C)C(=O)NCC(=O)N[C@H](C(=O)N[C@@H](C)C(=O)N[C@@H](C)C(=O)O)C(C)C [MMI-0100] (H-YARAAARQARAKALARQLGVAA-OH; N-terminus and C-terminus assumed) |  |  |  |  |  |  |  |  |  |  |  |  |  |  |  |  | > 65% |  |
| FAKLAARLYRKALARQLGVAA [MMI-0300] | 73% | 1% | 2% | 25% | 18% | 40% | 20% | 96% | 37% | 69% | 132% | 48% | 33% |  | 167% | 91% |  | 67% |
| YARAAARQARAKALNRQLGVA (Mammalian) [MMI-0200] |  | 21% | 53% | 74% | 128% | 82% | 74% | 90% | 67% | 98% |  | 98% | 74% | 100% | 164% |  |  | 93% |
| KAFAKLAARLYRKALARQLGVAA [MMI-0400] | 74% | 0% | 11% | 22% | 22% | 0% | 16% | 85% | 18% | 3% | 120% | 44% | 27% | 97% | 147% | 43% |  | 14% |
